Reference: paper PMC7181051, “Probing the Protein-Protein Interaction between the ATRXADD Domain and the Histone H3 Tail” (Molecules, 2020)
Where no end group is shown, it is not given here. [ ]: non-standard residue; d: D form. Lys(Me3) = C[N+](C)(C)CCCC[C@H](N)C(=O)O

T1: ADD domain of ATRX (ATRXADD) (UniProt P46100 159-296)
T1 construct: ATRX, N-terminal ADD (ATRX-DNMT3-DNMT3L) domain; plasmid pGEX-GP-2-ATRX ADD from Addgene; that it comes from the GST fusion and not from the His-tagged one is surmised; also called ATRX-DNMT3-DNMT3L domain; source: E. coli BL21, purified (spin column, on-column thrombin cleavage)
T1 sequence (looked up): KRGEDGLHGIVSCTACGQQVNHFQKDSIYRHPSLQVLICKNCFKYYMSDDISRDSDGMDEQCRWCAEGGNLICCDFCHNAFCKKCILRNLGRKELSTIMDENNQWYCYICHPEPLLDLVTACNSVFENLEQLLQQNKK


Target: T1, ADD domain of ATRX (ATRXADD)
Assay: fluorescence polarisation; competition: ATRXADD (5 μM) and H3_(1-15)K9me3-FAM (0.75 μM) incubated 15 minutes at room temperature, then unlabeled peptide at varying concentrations; PBS; 384-well plate
Details: both partners purified

Binder	IC50
ARTKQTARKST (trimethyl-lysine at 9, printed K(me3), histone H3 tail; source: bought: GenScript) [H3_(1-11)K9me3 peptide]	7.6 ± 1.4 µM
LRTKQTAR[Lys(Me3)]ST (histone H3 tail with A1 replaced; source: bought: GenScript) [H3_(1-11) A1L peptide]	5.05 ± 0.7 µM
ARTKQTARKSTGGKAY (histone H3 tail; source: bought: GenScript) [H3_(1-16) peptide]	85.8 ± 19.3 µM

The remaining lines, values ahead:

IC50	Binder
94.8 ± 4.6 µM	ARTKQTARKS (histone H3 tail; source: bought: GenScript) [H3_(1-10) peptide]
4.3 ± 0.8 µM	VRTKQTAR[Lys(Me3)]ST (histone H3 tail with A1 replaced; source: bought: GenScript) [H3_(1-11) A1V peptide]
≥ 100 µM	ART[Lys(Me3)]QTAR[Lys(Me3)]ST (histone H3 tail; source: bought: GenScript) [H3_(1-11)K4me3K9me3 peptide]
